Results published in patent US20240116985A1, “STAPLED PEPTIDES AND METHODS THEREOF” (priority 2020, published 2024).
Starred links: 1 amine or outer side, 2 acyl side, 3 side chain; linkers in the order of their positions; H or OH if unused. Positions of bridges follow the written chain, without caps; N, C: chain ends. Non-standard residues stand in square brackets, D forms with d. Primed or numbered codes have the meaning given here. PyrS2″ = (S)-3-amino-1-((pent-4-en-1-yloxy)carbonyl)pyrrolidine-3-carboxylic acid (stapling residue), C=CCCCOC(=O)N1CC[C@@](N[*:1])(C(=O)[*:2])C1; B5(16) = 2-amino-2-(pent-4-en-1-yl)hept-6-enoic acid = 2,2-bis(4-pentenyl)glycine (stitching residue), C=CCCCC(CCCC=C)(N[*:1])C(=O)[*:2]; B5(4) = 2,2-bis(4-pentenyl)glycine = 2-amino-2-(pent-4-en-1-yl)hept-6-enoic acid (stitching residue), C=CCCCC(CCCC=C)(N[*:1])C(=O)[*:2]; PyrS2 = (S)-3-amino-1-((pent-4-en-1-yloxy)carbonyl)pyrrolidine-3-carboxylic acid, C=CCCCOC(=O)N1CC[C@@](N[*:1])(C(=O)[*:2])C1; B5(12) = 2-amino-2-(pent-4-en-1-yl)hept-6-enoic acid (two olefin side chains), C=CCCCC(CCCC=C)(N[*:1])C(=O)[*:2]; B5(3) = 2,2-bis(4-pentenyl)glycine (stitching residue), C=CCCCC(CCCC=C)(N[*:1])C(=O)[*:2]; B5 = 2-amino-2-(pent-4-en-1-yl)hept-6-enoic acid, C=CCCCC(CCCC=C)(N[*:1])C(=O)[*:2]; Ala(1H-tetrazol-5-yl) = N[C@@H](Cc1nnn[nH]1)C(=O)O; Trp(6-Cl) = N[C@@H](Cc1c[nH]c2cc(Cl)ccc12)C(=O)O; Phe(2-Cl) = N[C@@H](Cc1ccccc1Cl)C(=O)O; Phe(3-F) = N[C@@H](Cc1cccc(F)c1)C(=O)O; 1Nal = N[C@@H](Cc1cccc2ccccc12)C(=O)O; 2Nal = N[C@@H](Cc1ccc2ccccc2c1)C(=O)O; Bta = N[C@@H](Cc1csc2ccccc12)C(=O)O; αAllylPro = C=CC[C@@]1(C(=O)O)CCCN1; tBuAla = CC(C)(C)C[C@H](N)C(=O)O; 2Thi = N[C@@H](Cc1cccs1)C(=O)O; 3Thi = N[C@@H](Cc1ccsc1)C(=O)O; Cit = NC(=O)NCCC[C@H](N)C(=O)O; S8 = C=CCCCCCC[C@](C)(N)C(=O)O; hSer = N[C@@H](CCO)C(=O)O

B1: I-1019: Ac-PL3-Asp-Npg-B5-Asp-Asp-Ala-Ala-Phe-Ser-PyrS2-2C1F-BztA-Ser-NH2 (peptide)
peptide: Ac-[αAllylPro]D[tBuAla][B5(16)]DDAAFS[PyrS2″][Phe(2-Cl)][Bta]S-NH2
modifications: staple 1-4, 4-11; not fully specified; printed as Ac-PL3-Asp-Npg-B5-Asp-Asp-Ala-Ala-Phe-Ser-PyrS2-2C1F-BztA-Ser-NH2

target: full-length beta-Catenin (Uniprot ID P35222) (Homo sapiens (Human)) (UniProt P35222); assay: fluorescence polarization competition; displacement of 5FAM-TCF4(10-53) from full-length beta-catenin
Target sequence in this assay (P35222 whole entry, the tested form may be a part): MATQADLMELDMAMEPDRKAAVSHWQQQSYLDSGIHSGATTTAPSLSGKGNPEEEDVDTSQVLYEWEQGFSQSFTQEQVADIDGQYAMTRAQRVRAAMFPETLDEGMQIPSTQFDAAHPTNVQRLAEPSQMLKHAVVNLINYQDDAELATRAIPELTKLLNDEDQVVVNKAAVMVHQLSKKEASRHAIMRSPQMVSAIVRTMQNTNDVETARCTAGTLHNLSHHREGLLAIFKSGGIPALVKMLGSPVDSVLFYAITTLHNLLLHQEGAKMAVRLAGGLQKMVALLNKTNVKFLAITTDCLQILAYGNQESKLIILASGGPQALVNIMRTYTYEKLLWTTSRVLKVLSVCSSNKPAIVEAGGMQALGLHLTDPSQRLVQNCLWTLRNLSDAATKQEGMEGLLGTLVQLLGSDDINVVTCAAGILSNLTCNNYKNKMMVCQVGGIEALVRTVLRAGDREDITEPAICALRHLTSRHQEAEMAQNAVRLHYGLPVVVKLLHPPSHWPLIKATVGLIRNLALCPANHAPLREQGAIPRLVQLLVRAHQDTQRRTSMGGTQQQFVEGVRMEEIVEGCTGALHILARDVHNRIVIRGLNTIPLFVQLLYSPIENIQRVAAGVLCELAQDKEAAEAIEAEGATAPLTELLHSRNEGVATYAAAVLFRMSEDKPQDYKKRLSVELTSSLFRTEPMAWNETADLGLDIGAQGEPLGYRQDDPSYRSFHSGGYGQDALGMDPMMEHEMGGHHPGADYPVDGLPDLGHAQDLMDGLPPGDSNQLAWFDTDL

IC50 [nM]	Binder
17	Ac-[αAllylPro]D[tBuAla][B5(12)]DNAAFL[PyrS2][3Thi][Bta]Q-NH2 (staple 1-4, 4-11) [I-856]
22	Ac-[αAllylPro]D[tBuAla][B5(12)]DNAAFF[PyrS2][3Thi][Bta]Q-NH2 (staple 1-4, 4-11) [I-855]

target: full-length beta-Catenin (Uniprot ID P35222) (Homo sapiens (Human)) (UniProt P35222); assay: fluorescence polarization competition; 10 nM full-length beta-catenin with 10 nM 5FAM-TCF4(10-53) probe as competitor
Target sequence in this assay (P35222 2-781 limits assumed): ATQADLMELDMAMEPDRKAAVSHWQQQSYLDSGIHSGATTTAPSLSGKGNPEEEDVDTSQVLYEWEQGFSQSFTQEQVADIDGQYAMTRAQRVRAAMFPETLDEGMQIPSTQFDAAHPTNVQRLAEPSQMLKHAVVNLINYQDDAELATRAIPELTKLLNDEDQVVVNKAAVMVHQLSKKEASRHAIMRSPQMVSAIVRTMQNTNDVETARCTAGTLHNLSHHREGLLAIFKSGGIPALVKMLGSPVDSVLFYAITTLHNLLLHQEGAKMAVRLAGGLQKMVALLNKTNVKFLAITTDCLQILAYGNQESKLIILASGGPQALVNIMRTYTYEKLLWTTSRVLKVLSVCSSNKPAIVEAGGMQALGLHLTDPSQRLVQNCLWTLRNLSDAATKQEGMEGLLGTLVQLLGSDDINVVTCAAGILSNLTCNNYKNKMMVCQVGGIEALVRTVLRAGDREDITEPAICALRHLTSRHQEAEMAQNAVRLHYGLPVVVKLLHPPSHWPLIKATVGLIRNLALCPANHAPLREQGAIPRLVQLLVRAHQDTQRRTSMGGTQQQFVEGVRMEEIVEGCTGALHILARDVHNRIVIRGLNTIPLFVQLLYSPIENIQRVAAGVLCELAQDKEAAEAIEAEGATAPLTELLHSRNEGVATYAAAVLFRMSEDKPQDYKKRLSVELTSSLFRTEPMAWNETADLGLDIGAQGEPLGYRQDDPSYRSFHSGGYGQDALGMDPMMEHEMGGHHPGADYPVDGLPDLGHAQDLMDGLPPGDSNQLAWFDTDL

IC50 [nM]	Binder
5	Ac-[αAllylPro]D[tBuAla][B5(4)]DDAAF[Cit][PyrS2″][3Thi][Bta]H-NH2 (staple 1-4, 4-11) [I-806]
5	Ac-[αAllylPro]D[tBuAla][B5(4)]DDAAF[Cit][PyrS2″][3Thi][Bta]Q-NH2 (staple 1-4, 4-11) [I-805]
5	B1
106	Ac-[αAllylPro]D[tBuAla][B5]DDAAFN[PyrS2][3Thi][Trp(6-Cl)]H-NH2 (staple 1-4, 4-11) [I-798]
6	Ac-[αAllylPro]D[tBuAla][B5]DDAAFL[PyrS2][3Thi][Bta]H-NH2 (staple 1-4, 4-11) [I-802]
5	Ac-[αAllylPro]D[tBuAla][B5(4)]DDAAF[hSer][PyrS2″][3Thi][Bta]H-NH2 (staple 1-4, 4-11) [I-804]
19	Ac-[αAllylPro]D[tBuAla][B5]DDAAFN[PyrS2][1Nal][Bta]H-NH2 (staple 1-4, 4-11) [I-794]
176	Ac-[αAllylPro]D[tBuAla][B5]DDAAFN[PyrS2][2Nal][Bta]H-NH2 (staple 1-4, 4-11) [I-795]

target: full-length beta-Catenin (Uniprot ID P35222) (Homo sapiens (Human)) (UniProt P35222); assay: fluorescence polarization competition; 10 nM full-length beta-catenin + 10 nM 5FAM-TCF4(10-53) probe, peptide titrated
Target sequence in this assay (P35222 2-781 limits assumed): as above

EC50 [nM]	Binder
5000	Ac-[αAllylPro][Ala(1H-tetrazol-5-yl)]A[B5(3)]DEAAFQ[S8]F[Bta]Q-NH2 (staple 1-4, 4-11; also: staple isomer composition, later eluting HPLC peak) [I-417]
90	Ac-[αAllylPro]DA[B5(3)]D[Ala(1H-tetrazol-5-yl)]AAFQ[S8]F[Bta]Q-NH2 (staple 1-4, 4-11) [I-413]
5000	Ac-[αAllylPro][Ala(1H-tetrazol-5-yl)]A[B5(3)]DEAAFQ[S8]F[Bta]Q-NH2 (staple 1-4, 4-11; also: staple isomer composition, earlier eluting HPLC peak) [I-416]
92	Ac-[αAllylPro]DI[B5(3)]DEAA[2Thi]Q[S8][Phe(3-F)][Bta]Q-NH2 (staple 1-4, 4-11) [I-412]

target: full-length beta-Catenin (Uniprot ID P35222) (Homo sapiens (Human)) (UniProt P35222); assay: fluorescence polarization competition: peptide titrated against 10 nM full-length beta-catenin + 10 nM 5FAM-TCF4(10-53) probe
Target sequence in this assay (P35222 2-781 limits assumed): as above

EC50 [nM]	Binder
5	Ac-[αAllylPro]D[tBuAla][B5(4)]DDAAF[Cit][PyrS2″][3Thi][Bta]H-NH2 (staple 1-4, 4-11) [I-806]
5	Ac-[αAllylPro]D[tBuAla][B5(4)]DDAAF[Cit][PyrS2″][3Thi][Bta]Q-NH2 (staple 1-4, 4-11) [I-805]
106	Ac-[αAllylPro]D[tBuAla][B5]DDAAFN[PyrS2][3Thi][Trp(6-Cl)]H-NH2 (staple 1-4, 4-11) [I-798]
6	Ac-[αAllylPro]D[tBuAla][B5]DDAAFL[PyrS2][3Thi][Bta]H-NH2 (staple 1-4, 4-11) [I-802]
5	Ac-[αAllylPro]D[tBuAla][B5(4)]DDAAF[hSer][PyrS2″][3Thi][Bta]H-NH2 (staple 1-4, 4-11) [I-804]
19	Ac-[αAllylPro]D[tBuAla][B5]DDAAFN[PyrS2][1Nal][Bta]H-NH2 (staple 1-4, 4-11) [I-794]
176	Ac-[αAllylPro]D[tBuAla][B5]DDAAFN[PyrS2][2Nal][Bta]H-NH2 (staple 1-4, 4-11) [I-795]

target: full-length beta-Catenin (Uniprot ID P35222) (Homo sapiens (Human)) (UniProt P35222); assay: fluorescence polarization competition; peptide titrated against 10 nM full-length beta-catenin + 10 nM 5FAM-TCF4(10-53) probe
Target sequence in this assay (P35222 whole entry, the tested form may be a part): as the sequence (P35222 whole entry, the tested form may be a part) above

IC50 [nM]	Binder
5000	Ac-[αAllylPro][Ala(1H-tetrazol-5-yl)]A[B5(3)]DEAAFQ[S8]F[Bta]Q-NH2 (staple 1-4, 4-11; also: staple isomer composition, later eluting HPLC peak) [I-417]
90	Ac-[αAllylPro]DA[B5(3)]D[Ala(1H-tetrazol-5-yl)]AAFQ[S8]F[Bta]Q-NH2 (staple 1-4, 4-11) [I-413]
5000	Ac-[αAllylPro][Ala(1H-tetrazol-5-yl)]A[B5(3)]DEAAFQ[S8]F[Bta]Q-NH2 (staple 1-4, 4-11; also: staple isomer composition, earlier eluting HPLC peak) [I-416]
92	Ac-[αAllylPro]DI[B5(3)]DEAA[2Thi]Q[S8][Phe(3-F)][Bta]Q-NH2 (staple 1-4, 4-11) [I-412]

target: full-length beta-Catenin (Uniprot ID P35222) (Homo sapiens (Human)) (UniProt P35222); assay: fluorescence polarization competition; 10 nM full-length beta-catenin with 10 nM 5FAM-TCF4 (residues 10-53) probe as competitor
Target sequence in this assay (P35222 2-781 limits assumed): as the sequence (P35222 2-781 limits assumed) above

EC50 [nM]	Binder
17	Ac-[αAllylPro]D[tBuAla][B5(12)]DNAAFL[PyrS2][3Thi][Bta]Q-NH2 (staple 1-4, 4-11) [I-856]
22	Ac-[αAllylPro]D[tBuAla][B5(12)]DNAAFF[PyrS2][3Thi][Bta]Q-NH2 (staple 1-4, 4-11) [I-855]
